Target: SARS-CoV-2 spike protein on Ramos-S cells (SARS-CoV-2) (UniProt P0DTC2)
Experiment: flow cytometry on cells

Substance	median fluorescence intensity
EflACE2-Fc-E430G (from UniProt Q9BYF1 19-740) (Fc fusion)	21000
EflACE2-Fc-H429F (from UniProt Q9BYF1 19-740) (Fc fusion)	20500
EflACE2-Fc-H429Y (from UniProt Q9BYF1 19-740) (Fc fusion)	15100
flACE2-Fc-E430G (from UniProt Q9BYF1 19-740) (Fc fusion)	17300
flACE2-Fc-H429F (from UniProt Q9BYF1 19-740) (Fc fusion)	16900
flACE2-Fc-H429Y (from UniProt Q9BYF1 19-740) (Fc fusion)	12500
trACE2-Fc-E430G (from UniProt Q9BYF1 19-615) (Fc fusion)	16700
trACE2-Fc-H429F (from UniProt Q9BYF1 19-615) (Fc fusion)	16300
trACE2-Fc-H429Y (from UniProt Q9BYF1 19-615) (Fc fusion)	11600

Reference: article PMC9369017
